The source of these data is the supplement of paper PMC12042874.

± gives the uncertainty stated by the source.

This series in a line: amyloid nucleation score (Sup35N fusion, yeast selection) (log enrichment); library NNK2; higher = more nucleation; inactive = no reads after selection. In a few lines:
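Yeast lacking psi expressed peptides of 20 random codons fused to Sup35N, received 100 μM copper sulfate for 24 hours, and were then grown for 7 days at 30°C on medium lacking adenine and uracil. Illumina sequencing of input and output plasmid inserts provided the reads. Nucleation scores are DiMSum log enrichments of output over input, centred on the mode of non-aggregating sequences. Any sequence with under 100 input reads was excluded.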

The substance CMRCILASCK registered an amyloid nucleation score of -0.348 ± 0.34.

Substance VRSSPTRVRERRSIILVLNC registered an amyloid nucleation score of 0.594 ± 0.81.

With NGSESAYGNSLWLCLLEAAI, the amyloid nucleation score result is “inactive”.

Consider FGLLWNNQSWLVARVSCSNL, for which the amyloid nucleation score is -0.04 ± 0.36.

As to FGSALFSIILH, the amyloid nucleation score amounted to 5.607 ± 0.033.

DYVSGYRVGQFVMLLGRLRN showed an amyloid nucleation score of -0.205 ± 0.55.

Consider FTNLVTLYVYCYSFWYGILN, for which the amyloid nucleation score is -0.232 ± 1.1.

For the substance VQRQIDNSKLWYNYTICIPA, the amyloid nucleation score amounted to 0.679 ± 0.62.

The substance CATSISMLEHQ displayed an amyloid nucleation score of 0.556 ± 0.2.

Consider EEWYHADVSCVHRKIPNATR, for which the amyloid nucleation score came to 0.644 ± 0.81.

Consider NYWWYVPW, for which the amyloid nucleation score was 0.527 ± 0.51.

On to RMSVYNF, for which the amyloid nucleation score is -0.177 ± 0.79.

The substance LANLTSWSILMAKRRLRLTL gave an amyloid nucleation score of 1.06 ± 0.33.

In turn, FCKYANSGGCNHSMSDAV yielded an amyloid nucleation score of -0.761 ± 1.1.

On to MGVKPTPCRVRPPRRPGASA, for which the amyloid nucleation score is 1.68 ± 0.27.

The substance SNCSPLATMDCSPDFMSTF displayed an amyloid nucleation score of -0.121 ± 1.1.

On to VVVRNGLLNISFKVNRCGFG, for which the amyloid nucleation score was determined as 8.662 ± 0.055.

With YLKMALVMIMYVITYRSTVG, the amyloid nucleation score worked out at 1.65 ± 0.31.

As to NGNVVADWI, the amyloid nucleation score was found to be 0.809 ± 0.27.

LRYVEGHGKDITSGGSLEEH gave an amyloid nucleation score of 1.41 ± 0.14.

WYVYSQ came in with an amyloid nucleation score of 3.25 ± 0.052.

Turning to DFDRSMRIARDNKRYGPVLV, the amyloid nucleation score is -0.166 ± 1.1.

For FTNNSPARSCDRVHGDGVRH, the amyloid nucleation score was found to be 0.376 ± 0.35.

Consider ILKSKVSGPIYVSE, for which the amyloid nucleation score amounted to 0.848 ± 0.23.

In turn, SEANKSGVSVGWCDCAVGCV yielded an amyloid nucleation score of 0.734 ± 0.21.

Substance TESVPSWNGMKNMYEDNQLK gave an amyloid nucleation score of 1.54 ± 0.55.

As for RVDARERNELDGIYFIVGSS, the amyloid nucleation score is -0.271 ± 1.

In turn, GHIFSRHVKGQLHGWEEDGP gave an amyloid nucleation score of 0.058 ± 1.

For LFMNRHVYVLQVVEMYKRQT, the amyloid nucleation score was -1.07 ± 1.1.

The substance NFMSYIDKRWYQWLVSDRIS registered an amyloid nucleation score of 5.413 ± 0.047.

Turning to CNWLYF, the amyloid nucleation score is 0.395 ± 0.8.

In turn, DRQTATSEMVSNRLISFRLV displayed an amyloid nucleation score of 0.145 ± 0.19.

With RYVYRTVGWHQFLCGTVLFW, the amyloid nucleation score came to 0.588 ± 0.16.

In turn, FIFVLI showed an amyloid nucleation score of 3.08 ± 0.11.

Substance ELSGGQTLLCRSVYLDVDRV gave an amyloid nucleation score of 3.74 ± 0.064.

Turning to KPEVRVEMQCNYVAWYTDMI, the amyloid nucleation score is -0.61 ± 0.37.

Substance RMFVW registered an amyloid nucleation score of -0.341 ± 0.37.

Substance DFGYYREIHDEEECSCLKVY showed an amyloid nucleation score of -0.981 ± 0.78.

In turn, GSFSEYVLWT yielded an amyloid nucleation score of 0.863 ± 0.41.

For LRIQCMMTLVWYSTPQSCNT, the amyloid nucleation score came out at 5.56 ± 0.066.

Take IQLDRSYSHNTSSLQGWHTM: the amyloid nucleation score stood at 0.062 ± 0.74.

For the substance FRYLDRSNYRKSCGYIITLT, the amyloid nucleation score is -0.74 ± 1.1.

On to VLTVN, for which the amyloid nucleation score result is “inactive”.

In turn, AEYSSAKGFD returned an amyloid nucleation score of -0.794 ± 0.55.

CTSLRYFCARFELLSAHSKW returned an amyloid nucleation score of 0.199 ± 0.4.

Turning to AQAFLNGVGRLLVCTRTCRN, the amyloid nucleation score came out at 0.895 ± 0.81.

Substance PRKDLPEYSLYSDLEPLVCN yielded an amyloid nucleation score of -1.25 ± 0.62.

Substance TRRWKALRP gave an amyloid nucleation score of 0.794 ± 0.2.

As for NFFPCACNNGAPIKEDFTCR, the amyloid nucleation score turned out to be 2.84 ± 0.17.

IRAKFI gave an amyloid nucleation score of 0.455 ± 0.39.

MCELGFHNSPFSGTFLLLMF gave an amyloid nucleation score of 1.64 ± 0.12.

TNCINM came in with an amyloid nucleation score of 5.49 ± 0.055.

The substance CRAHMCLQFNYWTRVMNTPT came in with an amyloid nucleation score of 6.809 ± 0.068.

Consider FMMTRKGIFELHFISRE, for which the amyloid nucleation score is 0.097 ± 1.1.

On to NFSVNCLYNWARYACFLKGM, for which the amyloid nucleation score was found to be 1.77 ± 0.12.

Substance NYCRTIFYYCAMIYFPCLAE registered an amyloid nucleation score of 1.77 ± 0.22.

Take SVFLSNLFSYRSADNYGMAR: the amyloid nucleation score entry is “inactive”.

The substance MYPIWNQCSSWNEVVLNGCR registered an amyloid nucleation score of 0.159 ± 0.4.

With SSAFFSFNWADKWCMLMCLV, the amyloid nucleation score was -1.41 ± 1.1.

Regarding LYWYKY, the amyloid nucleation score was -0.414 ± 0.79.

In the case of LWHHIHSDLMTIYFVLDSSG, the amyloid nucleation score entry was “inactive”.

Substance RRYKVDYTPSCIESPGVVLA gave an amyloid nucleation score of -1.19 ± 0.78.

The substance RCRISVWVVGSCLSRMYG came in with an amyloid nucleation score of 4.29 ± 0.056.

On to SCFVLLSSVDSLCMQDHF, for which the amyloid nucleation score came to 0.311 ± 0.43.

For the substance TIMNYTGCYFGPVGPDRDLG, the amyloid nucleation score worked out at 6.824 ± 0.042.

For the substance YSPSRVS, the amyloid nucleation score was -0.493 ± 0.48.

With TIACLEINPHAMSDYMRLCH, the amyloid nucleation score was -0.842 ± 0.49.

Take SFAAMLVSSKVVGWVTGRAT: the amyloid nucleation score stood at 1.68 ± 0.21.

The substance RLNMYSLSRLVYWAIVMRKM came in with an amyloid nucleation score of 0.823 ± 0.25.

As to FTIALIYTFLLISCLLGMSV, the amyloid nucleation score was 0.164 ± 1.1.

As for DSFLKKCSLIRIQVRAVFVL, the amyloid nucleation score was -1.14 ± 1.

Regarding CYGRIM, the amyloid nucleation score stood at 1.74 ± 0.099.

Substance AFCTVSSCFMSSSLPI yielded an amyloid nucleation score of 5.3 ± 0.06.

As to GVIWVCIRCDHGGTAMRLLW, the amyloid nucleation score came out at 1.25 ± 0.45.

Substance FASVLLCSIRRALGRVVRPL came in with an amyloid nucleation score of 0.144 ± 0.55.

Turning to TVFVWKPRVGKN, the amyloid nucleation score came to 4.716 ± 0.044.

TSGDCYMNGILNNGWGQ registered an amyloid nucleation score of -1.42 ± 0.78.

With HFNSLVSGQYMWSSGKSLVP, the amyloid nucleation score amounted to 4.01 ± 0.061.

On to IIVYVDDSPLYAVSRLQSYC, for which the amyloid nucleation score was determined as 0.758 ± 0.13.

Substance LQSRWCRVKETWQS returned an amyloid nucleation score of 1.66 ± 0.32.

AGWNLFLEGVYVW registered an amyloid nucleation score of -0.387 ± 1.1.

For KVFNSLASYSSIDLWCVVAG, the amyloid nucleation score entry is “inactive”.

For LTYYLRSFVIPSWG, the amyloid nucleation score entry is “inactive”.

As to SGEVSAVRV, the amyloid nucleation score was found to be 0.852 ± 0.19.

NVFFSFSMYKDAYNE had an amyloid nucleation score of -0.937 ± 0.54.

Regarding KAYCVHSPVVCISGRVLDSG, the amyloid nucleation score is -1 ± 1.1.

FYDVSCTRTDIMVESTSRLS showed an amyloid nucleation score of 5.24 ± 0.086.

With VLFKIIRLRLENIPSSWWVI, the amyloid nucleation score is 0.152 ± 0.32.

For the substance YLWDRSATRS, the amyloid nucleation score came out at 0.605 ± 0.29.

As for RLVTGGVWMDSDDSYRVIET, the amyloid nucleation score was -0.032 ± 1.1.

Substance VNGYIPRNAAVGQYATRALK displayed an amyloid nucleation score of -0.032 ± 1.1.

Take STDYMGPAY: the amyloid nucleation score was -0.617 ± 0.37.

AMLLANALIWNRICGDRRLA yielded an amyloid nucleation score of 0.823 ± 0.4.

The substance CSFDVYNSDCTTHDDIINNF came in with an amyloid nucleation score of -1.43 ± 1.

For LFADGFGSRINDCNTVSMF, the amyloid nucleation score was 0.881 ± 0.47.

As for IDPKEMTGDRQWVSFTVRRR, the amyloid nucleation score was found to be 0.574 ± 0.24.

Substance YRILVNFAVVSMVRINRSFW showed an amyloid nucleation score of -1.48 ± 0.78.

Take LSRFNFSNVLLRRNMSARA: the amyloid nucleation score is -1.78 ± 0.62.

For the substance GSAMF, the amyloid nucleation score entry was “inactive”.

Take TIFSNFGSMSLIGHGIEQVI: the amyloid nucleation score is -1.39 ± 0.76.

In the case of YSFYAKSW, the amyloid nucleation score entry is “inactive”.

For the substance ISFTVYGPRMVVWLQGIMFG, the amyloid nucleation score was -0.86 ± 0.35.

The substance SGNGLLMCPMGSRTGRLFHR gave an amyloid nucleation score of 3.54 ± 0.061.
